Experimental data published in publication PMC8988012 (The Journal of Biological Chemistry, 2022).
Blank lines part the entries; values can stand above or below the binder they belong to.

Experiments:
His-Zyxin (wildtype) = target: T1, His-Zyxin (wildtype) (UniProt Q15942 1-572); test: pull-down
T1 sequence (looked up): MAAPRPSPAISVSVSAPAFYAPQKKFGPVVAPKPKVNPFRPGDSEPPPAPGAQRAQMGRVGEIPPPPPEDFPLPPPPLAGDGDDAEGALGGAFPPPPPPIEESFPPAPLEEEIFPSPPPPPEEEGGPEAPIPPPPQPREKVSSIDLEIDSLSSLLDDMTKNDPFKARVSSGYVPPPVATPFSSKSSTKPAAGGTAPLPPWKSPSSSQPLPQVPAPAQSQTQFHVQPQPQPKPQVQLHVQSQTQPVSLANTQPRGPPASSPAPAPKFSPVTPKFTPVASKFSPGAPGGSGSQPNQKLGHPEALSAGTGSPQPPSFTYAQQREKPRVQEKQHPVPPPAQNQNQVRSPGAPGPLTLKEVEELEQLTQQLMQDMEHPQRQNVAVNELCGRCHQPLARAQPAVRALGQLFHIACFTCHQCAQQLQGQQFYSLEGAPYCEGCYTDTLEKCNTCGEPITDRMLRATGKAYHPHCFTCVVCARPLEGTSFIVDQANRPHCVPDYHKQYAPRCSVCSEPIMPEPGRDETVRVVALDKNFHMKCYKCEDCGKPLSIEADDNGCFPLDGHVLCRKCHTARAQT

[1] = mCherry-Zyxin microscopy, U2OS, ± GFP-14-3-3γ; details: glycan changed form; control: wild type
[2] = GFP-Zyxin1–350 microscopy, U2OS, ± mCherry-14-3-3γ; details: glycan changed form; control: Zyxin (1–350), Ser-169

binding result (His-Zyxin (wildtype)): binds
B1: GST-14-3-3γ (natural protein, UniProt P61981 1-247, looked up)
chain: MVDREQLVQKARLAEQAERYDDMAAAMKNVTELNEPLSNEERNLLSVAYKNVVGARRSSWRVISSIEQKTSADGNEKKIEMVRAYREKIEKELEAVCQDVLSLLDNYLIKNCSETQYESKVFYLKMKGDYYRYLAEVATGEKRATVVESSEKAYSEAHEISKEHMQPTHPIRLGLALNYSVFYYEIQNAPEQACHLAKTAFDDAIAELDTLNEDSYKDSTLIMQLLRDNLTLWTSDQQDDDGGEGNN

B2: Zyxin: S169C (protein)
parent chain: T1 sequence (looked up)
other: 14-3-3γ-induced nuclear localisation [1]: no change
other: 14-3-3γ-induced nuclear localisation [2]: no change
